From patent US20090304721A1, “TOXIN […] RECEPTOR ANTIBODIES” (priority 2005, published 2009)

How the values were obtained:
PC3 tumor = test: In vivo efficacy, subcutaneous tumor xenograft; parameters: species or system Athymic nu/nu mice; conditions: intraperitoneal, every fourth day, 5 doses; tumor volume by caliper
Experimental: (§3) Athymic nu/nu (Harlan, Somerville, N.J.) female mice 4-6 weeks of age were injected subcutaneously with 5×10^6 tumor cells. […] Each treatment group consisted of groups of mice ranging in number from 10-12.
(§4) Tumor volume measurements were taken with a caliper routinely (1-2 times/week) starting at the initiation of drug treatment.

HuVec cells = test: Fluorescent visualization of internalization of α-EphA2 antibodies; format: cell-based, human; conditions: 50 μg/ml Ab, 20 minutes at 37° C.
Experimental: (§1) Cells (PC3, HUVEC, or CT26) were grown for 24-48 hours at 37° C./5% CO2 at a concentration of 2.5-5.0×10^4 cells per 400 μl of appropriate growth media per chamber on Nunc's Tek II 8-chamber slides. […] Cells were then washed 2× with PBS and cell-surface-bound primary Abs were allowed to internalize by covering the cells with growth media and incubation at 37° C./5% CO2 for 0 minutes, 20 minutes (FIGS. 18A-C and 19), or 60 minutes (FIG. 17).
(§2) Subsequent to internalization, cells were fixed (4% paraformaldehyde), permeabilized (0.5% Triton X-100), and labeled with secondary AlexaFluor 488 goat-α-human IgG Ab (Biosource), with 2× cold PBS washing in between steps.
Finally, the cells were covered with […] Mounting Media with DAPI (Vector Labs) and a coverslip prior to examination and photography with fluorescent confocal microscope. Results of the antibody internalization experiments are shown in the fluorescent microscopy pictures of FIGS. 16, 17, 18A, 18B, 18C, and 19 herein. EphA2 was rapidly internalized in these cell lines upon binding the agonistic EphA2 antibodies.

EphA2 = molecular target: T1, EphA2 (Homo sapiens, UniProt P29317); test: EphA2 receptor activation (phosphorylation, immunoprecipitation/Western); format: cell-based; conditions: HuVec cells
T1 construct: endogenous in cells; host or cells: HUVEC (human)
Experimental: Cells were grown overnight at 37° C./5% CO2 at a concentration of 0.5×10^6 cells per 3 ml of appropriate growth media per well in 6-well tissue culture plates. […] The cells were incubated for 15 minutes at 37° C./5% CO2 to activate EphA2 receptor. Subsequent to activation the cells were washed 1× with cold PBS and lysed on ice with 1% Triton X-100 lysis buffer containing Phosphatase Inhibitor Cocktails 1 and 2 (Sigma) and Complete Protease Inhibitor Cocktail Tablets (Roche), added as per manufacturer's recommendation. D7 α-EphA2 mAb and 50 μl of protein A sepharose beads pre-conjugated to rabbit anti-mouse IgG were mixed with lysate at 4° C. overnight to immunoprecipitate the proteins.
Protein lysates were resolved by 10% Bis-Tris NuPAGE Western gel and transferred electrophoretically to nitrocellulose membranes (Invitrogen) following manufacturer's protocol. […] See also Coffman et al., Cancer Res. 63: 7907-7912, 2003.

MDA-MB231 tumor = test: In vivo efficacy, subcutaneous tumor xenograft; parameters: species or system Athymic nu/nu mice; conditions: intraperitoneal, every fourth day, 5 doses; tumor volume by caliper
Experimental: as §3, §4

PC3 cells = test: Fluorescent visualization of internalization of α-EphA2 antibodies; format: cell-based, human; conditions: 50 μg/ml Ab, 20 or 60 minutes at 37° C.
Experimental: FIG. 18. […] PC3 cells were labeled with either human α-EphA2 mAb (G5; panels A and B) or R347 isotype control (panel C). Cell surface attached antibodies were then allowed to internalize by incubating the cells under growth conditions for either zero (non-internalized: panels A and C) or […] (internalized: panel B). All cells were then fixed (4% formaldehyde), permeabilized (0.5% Triton X-100), and stained with AlexaFluor 488-Ab prior to addition of antifade mounting media and fluorescent microscopy examination.
as §1, §2
Finally, the cells were covered with […] Mounting Media with DAPI (Vector Labs) and a coverslip prior to examination and photography with fluorescent confocal microscope. […]

T1 sequence (P29317 24-976): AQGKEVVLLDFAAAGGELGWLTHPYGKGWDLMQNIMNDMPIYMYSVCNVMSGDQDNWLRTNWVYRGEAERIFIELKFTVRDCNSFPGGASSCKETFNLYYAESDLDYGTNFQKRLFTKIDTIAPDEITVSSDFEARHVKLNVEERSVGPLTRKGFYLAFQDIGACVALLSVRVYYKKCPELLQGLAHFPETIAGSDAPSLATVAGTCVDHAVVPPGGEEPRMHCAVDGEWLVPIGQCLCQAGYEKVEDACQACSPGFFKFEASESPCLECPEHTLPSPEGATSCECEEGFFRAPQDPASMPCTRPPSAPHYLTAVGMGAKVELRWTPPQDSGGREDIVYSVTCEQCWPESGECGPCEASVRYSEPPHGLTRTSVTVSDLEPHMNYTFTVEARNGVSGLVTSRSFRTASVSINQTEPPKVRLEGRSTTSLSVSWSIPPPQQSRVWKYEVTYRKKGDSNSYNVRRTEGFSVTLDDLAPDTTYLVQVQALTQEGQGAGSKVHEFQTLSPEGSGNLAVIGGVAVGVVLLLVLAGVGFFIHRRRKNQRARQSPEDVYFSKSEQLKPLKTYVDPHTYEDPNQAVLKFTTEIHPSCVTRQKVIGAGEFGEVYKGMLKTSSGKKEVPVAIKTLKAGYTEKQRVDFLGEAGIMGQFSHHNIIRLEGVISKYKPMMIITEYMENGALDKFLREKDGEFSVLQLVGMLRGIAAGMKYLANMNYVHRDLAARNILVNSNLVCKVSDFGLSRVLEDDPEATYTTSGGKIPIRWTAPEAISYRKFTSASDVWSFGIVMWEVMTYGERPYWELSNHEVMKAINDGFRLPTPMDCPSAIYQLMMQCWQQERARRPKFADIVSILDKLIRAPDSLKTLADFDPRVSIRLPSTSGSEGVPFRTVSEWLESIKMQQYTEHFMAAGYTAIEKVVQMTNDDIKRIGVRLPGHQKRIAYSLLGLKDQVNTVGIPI

B1: 3F2vcMMAE: anti-EphA2 antibody 3F2 conjugated to MMAE with a vc linker (conjugate)
VH: EVQLVESGGGVVRPGGSLRLSCAASGFTVSDYSMNWVRQAPGKGLEWIGFIRNKANAYTTEYSASVKGRFTISRDDSKNTLYLQMNSLKTEDTAVYYCTTYPRYHAMDSWGQGTMVTVSS
VL: AIQLTQSPSSLSASVGDRVTITCRASQSISNNLHWYLQKPGQSPQLLIYYGFQSISGVPSRFSGSGSGTDFTLTISSLQPEDFATYYCQQANSWPLTFGGGTKLEIK
modifications: non-natural residues
notes: anti-EphA2 antibody 3F2 conjugated to MMAE with a vc linker
PC3 tumor
  PC3 tumor growth in vivo: specifically inhibit

B2: 3F2: humanized agonistic monoclonal antibody that binds EphA2; VH/VL SEQ ID NO: 63 and 64 (antibody, V domains shown)
VH: B1 VH
VL: B1 VL
modifications: Antibody Variable Heavy chain; Antibody Variable region
HuVec cells
  internalization by immunofluorescence: Internalization
EphA2
  EphA2 phosphorylation: EphA2 phosphorylation

B3: G5vcMMAF: anti-EphA2 antibody G5 conjugated to MMAF with the valine-citrulline (vc) linker (conjugate)
VH: QMQLVQSGPEVKKPGTSVKVSCKASGFTFTDYSMNWVRQARGQRLEWIGFIRNKANDYTTEYSASVKGRVTITRDMSTSTAYMELSSLRSEDTAVYYCARYPRYHAMDSWGQGTSVTVSS
VL: DIQMTQSPSSLSASVGDRVTITCRASQSISNNLHWYQQKPGKAPKLLIKYVFQSISGVPSRFSGSGSGTDFTFTISSLQPEDFATYYCQQSNSWPLTFGGGTKVEIKG
modifications: non-natural residues
notes: anti-EphA2 antibody G5 conjugated to MMAF with the valine-citrulline (vc) linker
PC3 tumor
  PC3 tumor growth in vivo: specifically inhibited
MDA-MB231 tumor
  MDA-MB231 tumor growth in vivo: specifically inhibited

B4: G5: humanized agonistic monoclonal antibody that binds EphA2; VH/VL SEQ ID NO. 103 and 104 (antibody, V domains shown)
VH: B3 VH
VL: B3 VL
modifications: Antibody variable region
PC3 cells
  internalization by immunofluorescence: internalization
